# In the DeepSol protein solubility set:
# Assay: soluble on expression in E. coli; label from the status in PepcDB or PDB records
row,Sequence,soluble on expression in E. coli
1,MGNRIPDEIVDQVQKSADIVEVIGDYVQLKKQGRNYFGLCPFHGESTPSFSVSPDKQIFHCFGCGAGGNVFSFLRQMEGYSFAESVSHLADKYQIDFPDDITVHSGARPESSGEQKMAEAHELLKKFYHHLLINTKEGQEALDYLLSRGFTKELINEFQIGYALDSWDFITKFLVKRGFSEAQMEKAGLLIRREDGSGYFDRFRNRVMFPIHDHHGAVVAFSGRALGSQQPKYMNSPETPLFHKSKLLYNFYKARLHIRKQERAVLFEGFADVYTAVSSDVKESIATMGTSLTDDHVKILRRNVEEIILCYDSDKAGYEATLKASELLQKKGCKVRVAMIPDGLDPDDYIKKFGGEKFKNDIIDASVTVMAFKMQYFRKGKNLSDEGDRLAYIKDVLKEISTLSGSLEQEVYVKQLASEFSLSQESLTEQLSVFSKQNKPADNSGETKTRRAHLTTKARQKRLRPAYENAERLLLAHMLRDRSVIKKVIDRVGFQFNIDEHRALAAYLYAFYEEGAELTPQHLMARVTDDHISQLLSDILMLQVNQELSEAELSDYVKKVLNQRNWSMIKEKEAERAEAERQKDFLRAASLAQEIVTLNRS,not soluble
2,MAHHHHHHMNVRKGILNYLTLHSTIVRRNHHRSYHKECRQQGSPHGMEKNSKMKNVRPNYFVCIPLSGNKALVEEFLKVQNHVASKFEMLKECAIERNKFHISLLILHVKKSQMESSKEAFHEAMAEIKKLNHQAISFDTLETFRNDVLYAGLQEGSRKYVMNVIALLRDSFAKRDIHIFGNRKGREEARGKKRASGASDKSAANPIDKSAANPSDKSAAPPGTHERDDKEQITPHVTIMKNSYLRKIYANRKPQIFADYYADFNLSKLKNERVVPNKIQFLEMDTDSATSYYRIIAECGLP,not soluble
3,MASGDLVRYVITVMLHEDTLTEINELNNYLTRDGFLLTMTDDEGNIHELGTNTFGLISTQSEEEIRELVSGLTQSATGKDPEITITTWEEWNSNRK,soluble
4,MSLRKEPSSQLELFLNILHGFSTTITSETLNKISEKFLDMVNGSINPSLSLKNKITIVFQDCLTNGFQSANLSKLLENLNSIDVVEVLSEFIHCDLKVGAFSVIDLLDTDIFLSVLSMESLKQTLSIMDKFIIDILLVFTIVDINYEVFAEKLSKLITLHFNISLWLQVYQIDKLLAISETFGHVTKYNYGAQLKSYSDITDFTTLMVGFVKNSPTAEPPIFTRAFSDFILNGEDLTCAKQFLHFVAKPYHVSKDPVEELLYALSLFKCNEYDASIEIFLANDFSDELSLPKYLEVTENHVWYNLLHAINTKDKPAYYYELSVLCSKASSYANALKTIKKSISLDGTRADQLIQYLDTLIVFGDYKEVLDVLRLEQKVLDISLREKYYYTLLSDQKYSEMFTATLLQECYNANISNGSILLCVSDYKIIASILSSQVSLTDWNSYKKLFSFRILNQHERKACEELYDYVLFGSNDEVKEKCLLLISNVLKTFSDAKDQWFISYPGQIIHLHELNDKMNKCSKEGHHHHHH,not soluble
5,MGSDKIHHHHHHMISFFLSDLIKSILNIQDNNISFSEEECCQVTQKGDYLLKVFKGFLKSDYCTCPHCSSKNIVKNGSRHRKIKYIPIQNYNIELELTVQRYICKDCKKNFSPSTNIVSDNSSISNNLKYAIALELQKNISLTSIAKRYNISIPSVQRIMDNCYSDFKVNKKHLPEAICIDEFKSVKNIDGAMSFVFADYQSKSIIDIVEDRRLHSLTEYFSRFSLEARNNVKYICMDMYTSYISLVNSIFPNAKIVLDKFHIVNLVNRAFNQTRISIMNSIQDDSLKRKFKLFWKSLLKYYPDLCQINYYCQSFKRKLSSKLSLRKKP,not soluble
6,GSHMLESSAEESLAYREDDLRGRLGKVITAVPVDGFGEVVIEGIGGTISKSAVSFDNQQISYGTTVLVVDINNGVLSVTPHEPI,soluble
7,SACSRDTPEAPQSTSATSSAAPSTTSASTTAPSSASASSITQTSKVSSQAEAPTSVPPMLDSKHKNVQRAFEQFGALAPESLFAQFDTCDANGVQNSMACSGHDVGQFQFFKSDAKAASTTQLLTELRSSRVIEDTGRR,not soluble
8,GPGSMMLQPWLRRGSGATQKYVNGEFKDVPQGDALLVCVPEAHTWFSLHKMLCDPECRRRYPYTQSKKELILRIRRFLNDTLVDQIPALASVQRALEELSFMQPPSDTEAKFKSSLTIEQVPRIMAAVEASRTHSWEDVANTFAAMLKDPRIKNEDAMRMARIFDEMFAENERPK,not soluble
9,MKVTSLDGRQLRKMLRKEAAARCVVLDCRPYLAFAASNVRGSLNVNLNSVVLRRARGGAVSARYVLPDEAARARLLQEGGGGVAAVVVLDQGSRHWQKLREESAARVVLTSLLACLPAGPRVYFLKGGYETFYSEYPECCVDVKPISQEKIESERALISQCGKPVVNVSYRPAYDQGGPVEI,not soluble
10,MTKVQDITRESWILNTFPEWGTWLNEEIEQEVVPADNFAMWWLGNCGIWIKTPGGANVVMDLWSNRGKATKQVKDMVRGHQMANMAGARKLQPNLRAQPMVIDPFMINELDYYLVSHYHSDHIDINTAAAIINNPKLNHVKFVGPYECGEVWKNWGVPKDRIMILKPGDSFEFKDIKITAVESFDRTCLVTLPIQGADAQDGDLAGLAITDDDMARKAVNYIFETPGGTIYHGADSHFSNYFAKHGRDYDIDVVLNNYGENPIGIQDKMTSVDLLRMAENLRAKVVIPVHYDIWSNFMASTDEILELWKMRKERLQYDFHPFIWEVGGKYTYPQDQNRIEYHHPRGFDDCFLEDSNIQFKALL,not soluble
11,MVIERSCMGDLDKNPAVKAMVVFRKAMRTIDAQVAPSYKNNGLTQTQFAVLDVLYAKGEMTISRLIASILATSGNMTVVIKNMERNGWIYRSPNPDDRRASVVGLTEVGKQLIQKALPDHIAMVEAAFSVMTEEEQLVLIDLLKKFKSL,not soluble
12,MEWILFDKDGTLIEFDRSWEKIGVRFVQSLLETFPVHNKEAALRQLGVIKESIDPKSVMGSGSLQQIIQAFNDVTGQDTTDWSKSTSQKLVDERIPEINWVEGVKEALIDLKAKGYQLGIVTSDTKKGVEQFLAHTNAISLFDLIISTEADAYEKPNPKVLSPLFEQYNVDPQKVAIVGDTANDMKTASNANLGMAIGVLTGIATKEELHEADIILNSAADILEALN,not soluble
13,KDRSIIAMGAWLEVLSEEKDGNRLARHHEHGKIWKKPTRHEDIADFFPFGNPIHNNTMIMRRSVIDGGLRYNTERDWAEDYQFWYDVSKLGRLAYYPEALVKYRLHANQVSSKYSIRQHEIAQGIQKTARNDFLQSMGFKTRFDSLEYRQIKAVAYELLEKHLPEEDFERARRFLYQCFKRTDTLPAGAWLDFAADGRMRRLFTLRQYFGILHRLLKNR,not soluble
14,MLRRSSRHADQRKNGAQLRAEEEANKVKLRLTAENEKLKSEVEKLKKDHEELSRVTLKVNTEFTIQESHMARLLRENMSLKEQLNDFSFKLRFRDDMSRVEEQVKKEQGVTDGYRRRVNQLTEFHVKSQEEQRGEPFPWRTCEICACKFEGETMDQTPRVLGCGHTMCMGCVQKIVGQGYIKCPFCRIVTKIGTTPLNNLPKNYIVLNM,not soluble
15,MIDHNIRTGKAFFGRRKGKRLRNSQLVLIKKLFPTLDINLNNSVPLNLTSLFSRKVKEVRLEIGFGGGEHLLHEMKHFPQTGFIGIEPFINGMAKMLMSLEEHKQYQNQLRLYNDDATGLLDWLPNASLDGIDLFYPDPWPKKKHWKRRFINMKNLNRFARVLKTGKKFRFASDIESYVNWTLYHCSNHHSFEWEAKNPKDWKTPYTLWSGTRYEAKALREGRAPTYLTFIKK,not soluble
16,MDIKINDITLGNNSPFVLFGGICVLESLDSTLQTCAHYVEVTRKLGIPYIFKASFDKANRSSIHSYRGVGLEEGLKIFEKVKAEFGIPVITDVHEPHQCQPVAEVCDVIQLPAFLARQTDLVVAMAKTGNVVNIKKPQFLSPSQMKNIVEKFHEAGNGKLILCERGSSFGYDNLVVDMLGFGVMKQTCGNLPVIFDVTHSLQTRDAGSAASGGRRAQALDLALAGMATRLAGLFLESHPDPKLAKCEGASALPLHLLEDFLIRIKALDDLIKSQPILTIE,soluble
17,GPGSMSATDASITGAEAAPASPGTSPAATGPASTAAVTAYTVGIDIGSATTRVAVMDPAKLMPTIIRNALGNEATSTVVSFAANEARSFGENAAARQVTKASETIVDLAPWIFGYTSGEQVPKDTAVSLQVVSPATAMTEACVLKSRQLGAQEHLTHPAQVAAFYIKSLLQLLPEKGMIRTSPVCLAVPSAAYAASFEALRQATLLAGVPQEQTIIAHSDEATAVYFHHLQYSGLPAKHDGAAVPVVLIDIGQSCSVASLIMASQPRVEKVDCQTLRMGSEYIDALLCSHVYSELGKKFGAAADPLRGDIKSFRKILRECRKAKEVLSTTDETQVQLEGLSGDIDIIVSVTRAMMEQAALPFLQAVRAMLTAIKEKLPVPSATEDGSQAAAVPPRVEVIGGGWRSVCVMEAIREVFGITRVGVSLDANLSVAEGSAILAEVRQLTIARQQDEEQTAQATTASSVAEAHQVELIGFEVLDANSPINRPLSEAGVRAVTEWIMLEKQMEDSDARIHERLAALNRLDSYILQTLAAVDNCAASSEKKTEMRAYIEEVDAYVRSEGDEASSVELNEKLAAVQAHVTEHFSEIEAYYESVRAEEKRKEEELVKLSKERQEDESDLKSDPQRLRMAQKRREQGQGLFREECWAEAQTRFVQALSILGQLYDTSSEENKTKKREISLSCYLNIASCSVKLGLWKNAVNNCTNALELVPDHPKALFRRGQAYSALKEYEEAVTDLEKAKAVSQDDPVVVAELNKAKAALGAEKAKTKKMFAKMFS,soluble
18,GEFAQECQNLEVERQRRLERIKQKQSQLQELILQQIAFKNLVQRNRHAEQQASRPPPPNSVIHLPFIIVNTSKKTVIDCSISNDKFEYLFNFDNTFEIHDDIEVLKRMGMACGLESGSCSAEDLKMARSLVPKALEPYVTEMAQGTVGGVFITTA,soluble
19,MGSDKIHHHHHHMAKDIHSKAGTTLPPYFNIDPDAAMAELDQPTDTARFAEIAEGCARGRADLASRGLNEEGSKNLRLFSTWEITRYLIPVAQAHFRRVLKANPDLPQGRSETEGGAKWFTLDEVLRLRAFFAAQGSKAKNYLPYRPEGLPAKLVAVANFKGGVGKTSTAAHLAMSAALDGYKVLVIDLDSQGSMTSIFGGKIEDEWQTAFPLLARHYGEHLRVENQRRLDRGDAPQPLDESLTAAMEMTAKDVIQPTHWPNIDLIGAQLNLYWAEFQIPVWRMAARSWKLWDALTDRLEADGVLDQYDVVFIDTPPALGYLTINGLSAADILLVPMGASFLEFDSTGRFFDMLHSTFASIEEGENLAARALGRPEIGFEWDAVRAVITRYDGAQQGELAGLVQAYMGPTLSPHRQDFTALIGQAGEQVNGIYEADYRDFNRETYARGRETFDETYAAFKRLLNGVWRREELAVQEERAAS,not soluble
20,MDEQAVSTSMKTVYIRIYTSVLYTSYTKPGNWSAVDRSAWSVSCSNVYADDDAKYGAHLAIDGEINTTWFTWGVANAGECWWNTVLDRPVTLTGFSVTKQSAYGSGYNLRSAEIKVRKEGETEWVTYPRVLTFRNFKGADPQYAAIEPPIPNVKEFRINCLTPDNYTGFAEINLYVKQLEHHHHHH,soluble
21,MGSDKIHHHHHHMKKRFIYHDEKSNKFWWIDYEGDSLAVNYGKVGSIGKFQTKEFDNEEQCLKEASKLIAAKMKKGYQEDPKFNFMDRYYFDDEEIGLHVKTSHPNFQCHFTDPLYMCCWDEESPFGSDEGADALNVLENSLRKEPDLDCADFPQMLIETMWGMKYIAMDSILEEDVRAQLLVDEMSTIQSNMITYATAFGQIKVMGKISHKLKKMGLNALARHQLTAKILQWGDGQDSPILQKMIDDLTAFPHEN,not soluble
22,MKEKIPFYNEKEFHYMMKKTKKGTFSGWYIINPENNSVEFSGSFNRQFKLNKPVIPVNTEYVTRKEFNEYKDSNDQRLTKIENKVDKLEIKVDKLEKKVDKLEVKVDKLVETVNAQGEDLNNFKVEVRGTLQSQGETLQLILQTLQGMSKRLDSVEGRLDSMDGRLDSMETRLDKIDPLKLEHHHHHH,not soluble
